Assay [1] has as its target T1, K18(1-65) GST fusion protein (human, UniProt P05783 2-66).
T1 construct: Alone, not complexed; not shown: glutathione S-transferase (GST) fusion partner, modified pGEX-2T vector
T1 sequence: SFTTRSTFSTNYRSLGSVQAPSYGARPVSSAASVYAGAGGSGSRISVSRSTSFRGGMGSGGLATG
The experiment in a line: Western blot of SDS-PAGE-separated GST fusion proteins.

The target of assay [2] is T2, intact K8/K18(1-65) heterotypic complex (human, UniProt P05787 2-483; P05783 2-66).
T2 construct: Heterotypic complex of two GST fusion proteins; not shown: glutathione S-transferase (GST) fusion partner, modified pGEX-2T vector
T2 chain 1: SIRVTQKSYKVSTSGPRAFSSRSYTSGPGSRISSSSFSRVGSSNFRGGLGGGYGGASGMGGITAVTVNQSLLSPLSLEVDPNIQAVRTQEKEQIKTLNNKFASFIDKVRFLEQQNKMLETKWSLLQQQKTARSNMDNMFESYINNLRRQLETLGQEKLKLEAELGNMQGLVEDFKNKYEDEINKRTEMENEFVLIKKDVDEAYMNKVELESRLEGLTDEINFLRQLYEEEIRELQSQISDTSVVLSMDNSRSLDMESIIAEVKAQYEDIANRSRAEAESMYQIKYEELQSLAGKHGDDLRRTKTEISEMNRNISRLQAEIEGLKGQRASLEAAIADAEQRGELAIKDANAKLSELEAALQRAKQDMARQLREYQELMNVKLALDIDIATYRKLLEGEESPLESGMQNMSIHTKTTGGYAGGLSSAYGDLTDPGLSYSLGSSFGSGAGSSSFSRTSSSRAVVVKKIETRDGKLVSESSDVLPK
T2 chain 2: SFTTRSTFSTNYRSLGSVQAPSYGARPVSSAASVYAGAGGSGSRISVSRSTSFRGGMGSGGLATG
The experiment in a line: heterotypic association Western blot (K18 fragments on the membrane, incubated with purified intact K8). On the technique in general: In western blotting, separated proteins are transferred to a membrane and probed.

Assay [3] deals with T3, cleaved K8/K18 heterotypic complexes from adenovirus-infected HeLa cells (human, UniProt P05787 2-483; P05783 75-430, limits assumed).
T3 construct: also called cytokeratin from HeLa cells infected with adenovirus
T3 chain 1: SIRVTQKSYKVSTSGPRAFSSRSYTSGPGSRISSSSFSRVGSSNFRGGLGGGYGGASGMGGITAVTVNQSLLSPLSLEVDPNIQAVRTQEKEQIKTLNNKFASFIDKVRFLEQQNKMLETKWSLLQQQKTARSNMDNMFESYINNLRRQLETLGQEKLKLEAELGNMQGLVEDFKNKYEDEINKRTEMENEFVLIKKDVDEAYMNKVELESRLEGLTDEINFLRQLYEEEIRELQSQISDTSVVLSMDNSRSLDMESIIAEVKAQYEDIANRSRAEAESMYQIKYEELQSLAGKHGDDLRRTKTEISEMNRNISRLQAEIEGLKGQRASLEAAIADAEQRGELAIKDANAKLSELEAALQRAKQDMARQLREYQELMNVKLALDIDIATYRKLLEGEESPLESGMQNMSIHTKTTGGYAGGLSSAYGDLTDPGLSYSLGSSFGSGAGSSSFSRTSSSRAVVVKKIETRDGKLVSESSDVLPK
T3 chain 2: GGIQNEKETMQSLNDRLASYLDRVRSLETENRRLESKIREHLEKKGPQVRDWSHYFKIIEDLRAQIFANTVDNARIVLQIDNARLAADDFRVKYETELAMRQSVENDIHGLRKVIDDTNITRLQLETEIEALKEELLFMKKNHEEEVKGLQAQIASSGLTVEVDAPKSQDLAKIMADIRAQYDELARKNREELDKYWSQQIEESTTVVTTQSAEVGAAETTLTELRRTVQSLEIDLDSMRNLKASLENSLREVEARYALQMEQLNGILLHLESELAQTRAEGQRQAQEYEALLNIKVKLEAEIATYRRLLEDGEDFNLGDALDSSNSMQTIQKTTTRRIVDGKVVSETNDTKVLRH
The assay is described as follows: Western blot of cytokeratin purified from adenovirus-infected HeLa cells (data not shown).

Assay [4] addresses T4, K8(343-483)/intact K18 heterotypic complex.
T4 construct: one member of the group m25; not shown: N-terminal GST carrier (modified pGEX-2T) and its linker on the keratin constructs
T4 chain 1: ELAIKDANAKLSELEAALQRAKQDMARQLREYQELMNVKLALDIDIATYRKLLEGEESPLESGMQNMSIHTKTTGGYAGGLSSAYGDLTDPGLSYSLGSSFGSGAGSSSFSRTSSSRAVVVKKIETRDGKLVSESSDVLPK
T4 chain 2: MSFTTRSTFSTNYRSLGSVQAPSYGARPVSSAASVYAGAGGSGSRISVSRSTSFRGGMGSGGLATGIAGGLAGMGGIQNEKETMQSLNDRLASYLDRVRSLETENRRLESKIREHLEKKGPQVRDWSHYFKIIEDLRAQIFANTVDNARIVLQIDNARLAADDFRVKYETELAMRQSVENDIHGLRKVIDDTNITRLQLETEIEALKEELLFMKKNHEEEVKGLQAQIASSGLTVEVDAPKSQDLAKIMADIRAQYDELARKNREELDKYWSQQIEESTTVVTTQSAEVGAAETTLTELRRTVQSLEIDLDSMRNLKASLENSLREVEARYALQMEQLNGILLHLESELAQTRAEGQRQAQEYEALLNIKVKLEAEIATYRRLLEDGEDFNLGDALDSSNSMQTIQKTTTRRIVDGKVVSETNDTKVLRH
The assay is described as follows: summary map of the heterotypic association assay: GST deletion protein incubated with the complementary keratin, then stained with COU-1.

Assay [5] has as its target T5, K8(1-85)/intact K18 heterotypic complex (human, UniProt P05787 2-86; P05783 2-430).
T5 construct: Heterotypic complex of two GST fusion proteins; also called intact K8(1-85)/intact K18; not shown: glutathione S-transferase (GST) fusion partner, modified pGEX-2T vector
T5 chain 1: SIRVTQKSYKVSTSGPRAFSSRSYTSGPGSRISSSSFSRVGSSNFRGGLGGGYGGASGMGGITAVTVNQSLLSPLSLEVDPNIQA
T5 chain 2: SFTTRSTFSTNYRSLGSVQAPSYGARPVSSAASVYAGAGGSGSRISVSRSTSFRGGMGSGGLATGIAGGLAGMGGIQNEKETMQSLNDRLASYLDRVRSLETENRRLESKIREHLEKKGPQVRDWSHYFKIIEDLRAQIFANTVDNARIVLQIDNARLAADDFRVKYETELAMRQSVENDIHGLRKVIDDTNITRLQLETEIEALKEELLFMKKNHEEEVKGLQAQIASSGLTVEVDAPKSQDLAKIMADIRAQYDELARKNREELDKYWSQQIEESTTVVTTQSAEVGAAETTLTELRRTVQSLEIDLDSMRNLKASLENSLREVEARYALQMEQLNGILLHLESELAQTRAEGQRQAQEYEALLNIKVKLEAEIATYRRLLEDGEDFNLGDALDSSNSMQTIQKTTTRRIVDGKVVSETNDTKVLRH
The assay is described as above.

Assay [6] concerns the target T6, intact K18, native (band 3 of cytokeratin purified from colon cancer tissue; K18 in fixed cancer cells) (human, UniProt P05783 2-430, acetylated serine at its N-terminus).
T6 construct: Natural protein, no tag; also called normal K18; cytokeratin 18
T6 sequence: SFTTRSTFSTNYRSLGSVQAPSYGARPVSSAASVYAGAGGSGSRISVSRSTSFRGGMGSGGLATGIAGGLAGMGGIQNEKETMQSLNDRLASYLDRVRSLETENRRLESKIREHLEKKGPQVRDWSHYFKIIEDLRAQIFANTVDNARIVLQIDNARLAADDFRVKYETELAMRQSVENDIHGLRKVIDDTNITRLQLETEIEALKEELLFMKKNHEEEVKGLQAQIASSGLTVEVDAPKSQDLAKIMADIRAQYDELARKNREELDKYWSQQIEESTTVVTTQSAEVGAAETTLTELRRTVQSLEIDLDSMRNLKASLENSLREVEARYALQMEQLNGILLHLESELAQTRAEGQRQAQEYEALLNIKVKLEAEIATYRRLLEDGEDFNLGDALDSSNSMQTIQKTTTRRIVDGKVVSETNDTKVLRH
The assay is described as follows: strips of a PVDF blot of SDS-PAGE-separated cytokeratin purified from colon cancer tissue.

Assay [7] addresses T7, intact K8, native (band 1 of cytokeratin purified from colon cancer tissue; K8 in fixed cancer cells) (human, UniProt P05787 2-483, N-terminally blocked).
T7 construct: Natural protein, no tag; also called normal K8; cytokeratin 8
T7 chain: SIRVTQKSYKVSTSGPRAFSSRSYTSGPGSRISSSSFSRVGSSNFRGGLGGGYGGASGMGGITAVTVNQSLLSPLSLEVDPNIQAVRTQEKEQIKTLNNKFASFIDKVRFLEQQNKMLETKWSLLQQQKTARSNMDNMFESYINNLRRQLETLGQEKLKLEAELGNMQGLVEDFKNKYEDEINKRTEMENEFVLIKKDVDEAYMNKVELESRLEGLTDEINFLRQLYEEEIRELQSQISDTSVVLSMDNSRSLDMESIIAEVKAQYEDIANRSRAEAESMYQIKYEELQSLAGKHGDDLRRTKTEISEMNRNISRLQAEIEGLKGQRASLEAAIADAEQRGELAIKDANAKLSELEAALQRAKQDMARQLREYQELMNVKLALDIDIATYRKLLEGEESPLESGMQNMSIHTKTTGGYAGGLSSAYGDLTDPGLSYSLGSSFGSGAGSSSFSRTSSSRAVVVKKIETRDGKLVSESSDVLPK
Described as above.

B1: human monoclonal IgM antibody COU-1 (antibody, V domains shown)
VH: GAEVKKPGASVKVSCKASDYTFSSYYMHWVRQAPGQGLEWMGIINPSGGSTSYAQKFQGRVTMTRDTSTNTVYMELSSLRSEDTAVYYCARDQVVVAATLSNYGMDVWGQGTTVTVSS
VL: ELTQSPGTLSLSPGERATLSCRASQSVSSSYLAWYQQKPGQAPRLLIYDASNRATGIPARFSGSGSGTDFTLTISSLEPEDFAVYYCQQGTNWGIAFGQGTRLDIKR
notes: Human IgM with kappa light chain, secreted by hybridoma B9165 (ECACC 87040201), purified from culture supernatant; also called HMab COU-1; HuMab COU-1
As to B1, the binding result in assay [1] is listed as “no binding (tested: COU-1 5 µg/ml)”; in assay [2] it was “no binding (tested: COU-1 5 µg/ml)”; in assay [3], “no binding”; in assay [4], “no binding (tested: 5 µg/ml COU-1 (P-0285))”; in assay [5], “no binding (tested: 5 µg/ml COU-1 (P-0285))”; in assay [6], “no binding (tested: 5 µg/ml COU-1 (P-0279))”. Moreover, in assay [7], the binding result was “no binding (tested: 5 µg/ml COU-1 (P-0279))”.

Values taken from patent publication US20050048070A1 (published 2005).
